Reference: patent US10947270B2, “Targeted prodrug cytosine deaminase fusion carrier and application thereof” (National Yang-Ming University, priority 2015, dated 2021)
Several values for one entry are separate records, joined by “and”; a condition that tells them apart may be missing. Equal values may be shown once. Read-outs that look alike come from different tables or passages of the source.

B1: DTPA-yCD: yCD protein modified by the metal chelating agent DTPA (conjugate)
chain: MVVTGGMASKWDQKGMDIAYEEAALGYKEGGVPIGGCLINNKDGSVLGRGHNMRFQKGSATLHGEISTLENCGRLEGKVYKDTTLYTTLSPCDMCTGAIIMYGIPRCVVGENVNFKSKGEKYLQTRGHEVVVVDDERCKKIMKQFIDERPQDWFEDIGELEHHHHHH
B2: In-DTPA-yCD: DTPA-yCD treated with the stable isotope of indium under simulated marking conditions (conjugate)
chain: MVVTGGMASKWDQKGMDIAYEEAALGYKEGGVPIGGCLINNKDGSVLGRGHNMRFQKGSATLHGEISTLENCGRLEGKVYKDTTLYTTLSPCDMCTGAIIMYGIPRCVVGENVNFKSKGEKYLQTRGHEVVVVDDERCKKIMKQFIDERPQDWFEDIGELEHHHHHH
B3: ^111In-DTPA-yCD: indium-111 labeled DTPA-yCD protein (conjugate, UniProt Q12178 1-158, looked up)
Cytosine deaminase: MVTGGMASKWDQKGMDIAYEEAALGYKEGGVPIGGCLINNKDGSVLGRGHNMRFQKGSATLHGEISTLENCGRLEGKVYKDTTLYTTLSPCDMCTGAIIMYGIPRCVVGENVNFKSKGEKYLQTRGHEVVVVDDERCKKIMKQFIDERPQDWFEDIGE
modifications: 111In-DTPA label
notes: indium-111 labeled DTPA-yCD protein
B4: DTPA-RGD4C-yCD: RGD4C-yCD protein modified by the metal chelating agent DTPA (conjugate)
chain: MACDCRGDCFCVTGGMASKWDQKGMDIAYEEAALGYKEGGVPIGGCLINNKDGSVLGRGHNMRFQKGSATLHGEISTLENCGRLEGKVYKDTTLYTTLSPCDMCTGAIIMYGIPRCVVGENVNFKSKGEKYLQTRGHEVVVVDDERCKKIMKQFIDERPQDWFEDIGELEHHHHHH
B5: In-DTPA-RGD4C-yCD: DTPA-RGD4C-yCD treated with the stable isotope of indium under simulated marking conditions (conjugate)
chain: MACDCRGDCFCVTGGMASKWDQKGMDIAYEEAALGYKEGGVPIGGCLINNKDGSVLGRGHNMRFQKGSATLHGEISTLENCGRLEGKVYKDTTLYTTLSPCDMCTGAIIMYGIPRCVVGENVNFKSKGEKYLQTRGHEVVVVDDERCKKIMKQFIDERPQDWFEDIGELEHHHHHH

Key:
[1] = Enzyme kinetic analysis of yCD series proteins after DTPA modification, marking and purification; format: biochemical; conditions: for Vmax compared with the original enzyme activity: after EDTA with a 10-fold molar excess of protein
Text: The enzyme activity of yCD is not affected by DTPA modification.
FIGS. 24A-24B show the kinetic curve of yCD series protein modified, labeled and purified by DTPA. The enzyme activity of the two proteins is not affected by the labeling conditions. After adding EDTA with a 10-fold molar excess of protein, and it is competitively purified, In-DTPA-yCD compared with the original enzyme activity.
The curve and enzyme kinetic parameters (see FIG. 18 and Table 13) are fitted by the […] protein enzyme kinetics through the Michaelis-Menten formula in the Graph prism program.
Before the protein is labeled by radioisotope, its enzyme function must be determined, and based on the original enzyme function, it should be examined whether it will be affected during the radioactive marking process. The curve and enzyme kinetic parameters of protein are fitted by the Michaelis-Menten formula in the Graph prism program. […] Whether the yCD and RGD4C-yCD protein detected by the same method will be affected under the conditions of DTPA modification, marking and purification. […] After the completion of the radioactive metal mark, it is necessary to add EDTA of 10-fold protein Moire number and react at room temperature for 1 hour to compete for the radioactive metal isotope indium which is not chelated on DTPA. The EDTA in this step also has the chance to chelate the metal zinc ion of the enzyme catalytic center, the enzyme activity is impaired, so it is necessary to analyze the enzyme activity of In-DTPA-yCD and In-RGD4C-yCD protein after competition with EDTA. After the EDTA competitive reaction is completed, the enzyme kinetics analysis can be carried out by reducing the EDTA molecule weight through membrane centrifugation method and by replacing the solution with pH 7.0. […] The curve and receptor binding ability parameters of the protein and integrin αvβ3 are fitted under the conditions of DTPA modification, marking and purification by the One site-Specific binding formula in the Graph prism program (see FIG. 25 and Table 18). […] Although the two proteins after marking are greatly affected by the enzyme activity, they still have good binding ability to the integrin αvβ3 receptor. In consideration of the indispensability of EDTA for radiochemical purity, it retains a considerable amount of enzyme activity. In addition, the effect of integrin αvβ3 receptor binding ability is minimal, in combination of cell uptake, biodistribution and angiography experiment, focusing on the evaluation of target results, and the subsequent biological experiment is still carried out by the marking and purification conditions.

[2] = format: physicochemical
Experimental: The radiochemical purity of ^111In-DTPA-yCD and ^111In-DTPA-RGD4C-yCD are greater than 95% after marking and purification. Both are stored in HEPES buffer liquid (4° C.) for 48 hours, and the radiochemical purity is still higher than 85% (see FIG. 26). Both are placed in fetal bovine serum (37° C.) to simulate their stability in vivo. After 48 hours, the radiochemical purity of both is about 80%. It is shown that radioactive metal indium-111 is stably chelated on DTPA.

[3] = set-up: species or system nude mice; conditions: mouse, in vivo
Experimental: ES-2-luc tumor nude mice is intraperitoneally injected with 50 μCi (2.5 μg) ^111In-DTPA-yCD and ^111In-DTPA-RGD4C-yCD for 1, 4 and 24 hours, then organs are collected and their radioactivity is measured to obtain biodistribution, as shown in Table 19 and Table 20. […] In addition to the part accumulated in the tumor, another part of the drug is absorbed back into the blood circulation system by the peritoneal blood vessels. […] The pancreatic radioactivity of the two drugs is observed after 1 hour of injection. The pancreatic radioactivity of ^111In-DTPA-RGD4C-yCD (8.06±0.88% ID/g) is higher than that of ^111In-DTPA-yCD (3.91±0.36% ID/g), it is suspected that tumor cells invade the pancreas.

[4] = set-up: species or system nude mice; conditions: mouse, in vivo; remark: listed apart in the source
Experimental: The arrow is marked as a tumor.
In in-vitro cell experiment, the binding ability of ^111In-DTPA-RGD4C-yCD and the integrin αvβ3 receptor on the cell membrane has been verified. In order to know whether the drug can show its target effect in vivo, integrin αvβ3 is seeded subcutaneously in the right side of nude mice. After the high-expression U87MG tumor cells are grown to 100 mm^3, 60-70 μCi (3-3.5 μg) of ^111In-DTPA-yCD and ^111In-DTPA-RGD4C-yCD are injected directly into the tumor, the images are collected by microSPECT/CT after 1, 4, 24, 48 hours. It can be seen from the image (see FIG. 31) that the drug retention in the ^111In-DTPA-RGD4C-yCD group (orange arrow) is better than that in the ^111In-DTPA-yCD, and the target ligand RGD4C is missing. ^111In-DTPA-yCD enters the systemic blood circulation system within 1 hour and is metabolized by normal organs. From FIG. 31, it can be seen that the kidney is the main metabolic organ of these two drugs. […] After 24-48 hours, the amount of accumulation in the tumor is running out. On the contrary, ^111In-DTPA-RGD4C-yCD is bound with integrin αvβ3 on tumor cells, then the ratio of drug entering the systemic blood circulation is reduced, and the metabolic rate is slow.

[5] = after 10x EDTA competition and purification

Molecule | Km [1] | Vmax [1] [µM/min] | Km [1, 5] [µM] | Vmax [1, 5] [µM/min] | Vmax compared with the original enzyme activity [1] [%] | radiochemical purity after incubation [2] | radioactivity in the peritoneal cavity reduced to (fraction of 1 hour value) [3] | time to enter the systemic blood circulation system [4] [h] | Vmax compared with the original protein ([1]; after DTPA modification) [%] | Vmax ([1]; listed as DTPA- RGD4C-yCD) [µM/min]
B1 | 840 µM and 1040 µM | 286.8 ± 10.80 |  |  |  |  |  |  |  | 
B2 | 1120 ± 58.7 µM | 270.0 ± 6.165 | 1930 ± 286 | 125.2 ± 9.652 | 47 |  |  |  |  | 
B3 |  |  |  |  |  | about 80% | ½ | ≤ 1 |  | 
B4 | 1160 ± 108 µM | 224.6 ± 8.408 |  |  |  |  |  |  | 80 | 224.6 ± 8.408
B5 | 956 ± 76.8 µM | 226.8 ± 6.918 | 1630 ± 273 | 117.7 ± 9.510 | 40 |  |  |  |  | 
